Here are results for 13 molecules from patent US20240376170A1 (BRIGHT PEAK THERAPEUTICS, published 2024).

The labels stand for the following.
T1: IL-2 receptor βγ complex on human T cells (human, UniProt P14784 27-551; P31785 23-369)
T1 sequence (looked up) 1: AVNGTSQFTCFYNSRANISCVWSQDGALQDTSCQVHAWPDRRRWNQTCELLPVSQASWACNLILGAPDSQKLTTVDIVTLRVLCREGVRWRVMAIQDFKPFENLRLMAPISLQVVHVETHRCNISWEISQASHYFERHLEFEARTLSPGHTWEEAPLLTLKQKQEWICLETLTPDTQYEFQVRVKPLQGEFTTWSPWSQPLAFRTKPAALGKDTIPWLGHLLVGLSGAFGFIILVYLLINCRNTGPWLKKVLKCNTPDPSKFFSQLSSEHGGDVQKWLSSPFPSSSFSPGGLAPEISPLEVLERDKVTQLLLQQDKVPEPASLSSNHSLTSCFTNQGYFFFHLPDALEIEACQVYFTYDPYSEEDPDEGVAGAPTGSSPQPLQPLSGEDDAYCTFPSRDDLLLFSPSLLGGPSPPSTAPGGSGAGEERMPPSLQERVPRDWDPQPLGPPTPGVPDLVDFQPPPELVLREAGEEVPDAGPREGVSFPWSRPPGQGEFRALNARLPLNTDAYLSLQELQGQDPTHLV
T1 sequence (looked up) 2: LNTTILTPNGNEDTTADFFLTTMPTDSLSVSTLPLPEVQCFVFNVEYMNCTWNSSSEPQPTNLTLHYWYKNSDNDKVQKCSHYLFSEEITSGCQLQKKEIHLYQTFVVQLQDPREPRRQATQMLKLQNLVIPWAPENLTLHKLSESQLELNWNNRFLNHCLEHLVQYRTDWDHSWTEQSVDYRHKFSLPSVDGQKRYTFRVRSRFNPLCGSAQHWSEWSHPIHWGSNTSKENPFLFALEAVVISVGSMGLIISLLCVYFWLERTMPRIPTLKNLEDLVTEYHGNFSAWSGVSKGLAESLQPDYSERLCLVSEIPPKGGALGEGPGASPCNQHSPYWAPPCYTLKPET

T2: IL-2 receptor βγ complex (human, UniProt P14784 27-551; P31785 23-369)
T2 sequence (looked up) 1: T1 sequence (looked up) 1
T2 sequence (looked up) 2: T1 sequence (looked up) 2

T3: IL-2 receptor βγ complex on C57BL/6 mouse splenocytes (mouse, UniProt P16297 27-539; P34902 23-369)
T3 sequence (looked up) 1: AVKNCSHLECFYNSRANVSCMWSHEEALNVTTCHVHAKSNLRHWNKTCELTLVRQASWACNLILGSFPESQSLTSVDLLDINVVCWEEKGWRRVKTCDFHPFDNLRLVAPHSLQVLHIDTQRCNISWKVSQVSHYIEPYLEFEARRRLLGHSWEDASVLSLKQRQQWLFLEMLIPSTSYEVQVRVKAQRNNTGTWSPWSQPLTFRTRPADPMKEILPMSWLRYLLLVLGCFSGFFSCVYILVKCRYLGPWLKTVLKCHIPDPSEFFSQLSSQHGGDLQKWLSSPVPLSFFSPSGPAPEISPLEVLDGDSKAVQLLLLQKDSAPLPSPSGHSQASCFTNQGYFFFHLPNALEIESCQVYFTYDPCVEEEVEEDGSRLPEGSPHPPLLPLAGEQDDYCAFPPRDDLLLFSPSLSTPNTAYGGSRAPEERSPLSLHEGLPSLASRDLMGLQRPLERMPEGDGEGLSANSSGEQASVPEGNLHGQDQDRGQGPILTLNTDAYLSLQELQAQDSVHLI
T3 sequence (looked up) 2: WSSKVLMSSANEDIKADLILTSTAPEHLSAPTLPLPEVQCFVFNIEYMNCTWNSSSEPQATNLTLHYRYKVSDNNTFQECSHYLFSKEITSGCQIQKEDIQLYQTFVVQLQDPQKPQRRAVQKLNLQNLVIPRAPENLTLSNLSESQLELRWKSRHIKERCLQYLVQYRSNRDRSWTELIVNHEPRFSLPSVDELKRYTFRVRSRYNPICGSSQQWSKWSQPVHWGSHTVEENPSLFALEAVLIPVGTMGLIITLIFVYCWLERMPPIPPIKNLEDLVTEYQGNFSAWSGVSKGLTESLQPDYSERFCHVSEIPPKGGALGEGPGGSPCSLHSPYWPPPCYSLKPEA

B1: CMP-148, MMP2 cleaved (ligand)
chain: APTSSSTKKTQLQLKHLLLDLQ[Nle]ILNGINNYKNPKLTR[Nle]L[hSer][Yn3(3)]KF[Ygp(3)][Nle]PKKATELKHLQCLEEELKPLEEVL[hSer]LAQSKNFHLRPRDLISNINVIVLELKGSETTF[hSer]CEYADETATIVEFLNRWITFSQSIISTLT
modifications: also: MMP2-cleaved form, remnant not given here, Lys15 side chain attached moiety
B2: CMP-147, MMP2 cleaved (ligand)
chain: APTSSSTKKTQLKLEHLLLDLQ[Nle]ILNGINNYKNPKLTR[Nle]L[hSer][Yn3(3)]KF[Ygp(3)][Nle]PKKATELKHLQCLEEELKPLEEVL[hSer]LAQSKNFHLRPRDLISNINVIVLELKGSETTF[hSer]CEYADETATIVEFLNRWITFSQSIISTLT
modifications: also: MMP2-cleaved form, remnant not given here, Lys13 side chain attached moiety
B3: CMP-150 (ligand)
chain: APTSSSTKKTQLQLEHLLLDLK[Nle]ILNGINNYKNPKLTR[Nle]L[hSer][Yn3(3)]KF[Ygp(3)][Nle]PKKATELKHLQCLEEELKPLEEVL[hSer]LAQSKNFHLRPRDLISNINVIVLELKGSETTF[hSer]CEYADETATIVEFLNRWITFSQSIISTLT
modifications: also: further groups not given here
B4: CMP-149 (ligand)
chain: APTSSSTKKTQLQLEHLLKDLQ[Nle]ILNGINNYKNPKLTR[Nle]L[hSer][Yn3(3)]KF[Ygp(3)][Nle]PKKATELKHLQCLEEELKPLEEVL[hSer]LAQSKNFHLRPRDLISNINVIVLELKGSETTF[hSer]CEYADETATIVEFLNRWITFSQSIISTLT
modifications: also: further groups not given here
B5: CMP-146, MMP2 cleaved (ligand)
chain: APTSSSTKKTKLQLEHLLLDLQ[Nle]ILNGINNYKNPKLTR[Nle]L[hSer][Yn3(3)]KF[Ygp(3)][Nle]PKKATELKHLQCLEEELKPLEEVL[hSer]LAQSKNFHLRPRDLISNINVIVLELKGSETTF[hSer]CEYADETATIVEFLNRWITFSQSIISTLT
modifications: also: MMP2-cleaved form, remnant not given here, Lys11 side chain attached moiety
B6: CMP-149, MMP2 cleaved (ligand)
chain: APTSSSTKKTQLQLEHLLKDLQ[Nle]ILNGINNYKNPKLTR[Nle]L[hSer][Yn3(3)]KF[Ygp(3)][Nle]PKKATELKHLQCLEEELKPLEEVL[hSer]LAQSKNFHLRPRDLISNINVIVLELKGSETTF[hSer]CEYADETATIVEFLNRWITFSQSIISTLT
modifications: also: MMP2-cleaved form, remnant not given here, Lys19 side chain attached moiety
B7: CMP-150, MMP2 cleaved (ligand)
chain: APTSSSTKKTQLQLEHLLLDLK[Nle]ILNGINNYKNPKLTR[Nle]L[hSer][Yn3(3)]KF[Ygp(3)][Nle]PKKATELKHLQCLEEELKPLEEVL[hSer]LAQSKNFHLRPRDLISNINVIVLELKGSETTF[hSer]CEYADETATIVEFLNRWITFSQSIISTLT
modifications: not fully specified; also: further groups not given here
B8: CMP-148 (ligand)
chain: APTSSSTKKTQLQLKHLLLDLQ[Nle]ILNGINNYKNPKLTR[Nle]L[hSer][Yn3(3)]KF[Ygp(3)][Nle]PKKATELKHLQCLEEELKPLEEVL[hSer]LAQSKNFHLRPRDLISNINVIVLELKGSETTF[hSer]CEYADETATIVEFLNRWITFSQSIISTLT
modifications: also: further groups not given here
B9: CMP-147 (ligand)
chain: APTSSSTKKTQLKLEHLLLDLQ[Nle]ILNGINNYKNPKLTR[Nle]L[hSer][Yn3(3)]KF[Ygp(3)][Nle]PKKATELKHLQCLEEELKPLEEVL[hSer]LAQSKNFHLRPRDLISNINVIVLELKGSETTF[hSer]CEYADETATIVEFLNRWITFSQSIISTLT
modifications: also: further groups not given here
B10: CMP-136, MMP2 cleaved molecule (ligand)
chain: APTSSSTKKTQLQLEHLLLDLQ[Nle]ILNGIENYKNPKLTR[Nle]L[hSer][Yn3]KF[Ygp][Nle]PKKATELKHLQCLEEELKPLEEVL[hSer]LAQSKNFHLRPRDLISNINVIVLELKGSETTF[hSer]CEYADETATIVEFLNRWITFSQSIISTLT
modifications: ends and bridges not checked; also: cleaved by MMP2, cleavage product not defined, N-terminal PEG9 link and Glu29 side-chain attachment of the cleavable peptide not defined
B11: CMP-145, MMP2 cleaved molecule (ligand)
chain: APTSSSTKKTQLQLEHLLLDLQKILNGINNYKNPKLTR[Nle]L[hSer][Yn3]KF[Ygp][Nle]PKKATELKHLQCLEEELKPLEEVL[hSer]LAQSKNFHLRPRDLISNINVIVLELKGSETTF[hSer]CEYADETATIVEFLNRWITFSQSIISTLT
modifications: ends and bridges not checked; also: Lys23 side chain attached to another sequence (cleavable peptide), cut by MMP2, product not given here
B12: CMP-003 (ligand)
chain: APTSSSTKKTQLQLEHLLLDLQ[Nle]ILNGINNYKNPKLTR[Nle]L[hSer][Yn3]KF[Ygp][Nle]PKKATELKHLQCLEEELKPLEEVL[hSer]LAQSKNFHLRPRDLISNINVIVLELKGSETTF[hSer]CEYADETATIVEFLNRWITFSQSIISTLT
modifications: ends and bridges not checked
B13: CMP-003, MMP2 treated (ligand)
chain: APTSSSTKKTQLQLEHLLLDLQ[Nle]ILNGINNYKNPKLTR[Nle]L[hSer][Yn3]KF[Ygp][Nle]PKKATELKHLQCLEEELKPLEEVL[hSer]LAQSKNFHLRPRDLISNINVIVLELKGSETTF[hSer]CEYADETATIVEFLNRWITFSQSIISTLT
modifications: ends and bridges not checked

Values joined by “and” are separate entries in the source; they are usually repeats but may differ in a detail not shown here. Equal entries are not always repeated. Primed or numbered codes have the meaning given here. [ ]: non-standard residue; d: D form. Ygp = O-(8x polyethylene glycol-amino)-tyrosine (Tyr, amino-capped PEG8); Yn3 = O-(9x polyethylene glycol-azido)-tyrosine (Tyr, azide-capped PEG9); Ygp(3) = O-(PEG8-amino)-tyrosine; Yn3(3) = O-(PEG9-azido)-tyrosine; hSer = N[C@@H](CCO)C(=O)O; Nle = CCCC[C@H](N)C(=O)O

The first experiment addresses T1, IL-2 receptor βγ complex on human T …. In words: cell-based or functional assay.
As for B1, the “Average EC50, pSTAT5 Assay (T cells), MMP2 cleaved molecule” value (shortened to “Average EC50 … MMP2 cleaved molecule”) stood at 0.95 nM.
For B2, the “Average EC50 … MMP2 cleaved molecule” value turned out to be 1.29 nM.
As to B3, the “Average EC50, pSTAT5 Assay (T cells), intact molecule” value (“Average EC50 … intact molecule” below) is 6.38 nM.
For B4, the “Average EC50 … intact molecule” value turned out to be 46.7 nM.
Take B5: the “Average EC50 … MMP2 cleaved molecule” value came to 0.92 nM.
Regarding B6, the “Average EC50 … MMP2 cleaved molecule” value was 9.56 nM.
Same read-out and setting: as for B7, the figure is 0.45 nM.
As for B8, the “Average EC50 … intact molecule” value came to 3.57 nM.
Regarding B9, the “Average EC50 … intact molecule” value was determined as 3.86 nM.

For a further experiment, the target named is T2, IL-2 receptor βγ complex. In words: cell-based or functional assay.
On to B10, for which the “Average EC50, pSTAT5 Assay in NK cells” value was 0.277 nM.
With B11, the “Average EC50, pSTAT5 Assay in NK cells” value was 82 pM and 0.246 nM.

For another experiment, the target named is T2, IL-2 receptor βγ complex. In words: cell-based or functional assay. This is another data set of the same source.
Consider B10, for which the “Average EC50, pSTAT5 Assay (T cells)” value was determined as 2.4 nM.

A further experiment has as its target T3, IL-2 receptor βγ complex on C57BL/6 …. In words: cell-based or functional assay.
For B10, the “Average EC50, pSTAT5 Assay in mouse splenocytes” value turned out to be 84.7 nM.
For B12, the “Average EC50, pSTAT5 Assay in mouse splenocytes” value turned out to be 24 nM.
Turning to B11, the “Average EC50, pSTAT5 Assay in mouse splenocytes” value was 55.2 nM.
In the case of B13, the “Average EC50, pSTAT5 Assay in mouse splenocytes” value turned out to be 45.7 nM.
